# In paper PMC10638201, “Application of electrospun chitosan-based nanofibers as immobilization matrix for biomolecules” (Applied Microbiology and Biotechnology, 2023):
# Target: 6xHis-eugenol-oxidase-StrepTag-II (recombinant eugenol oxidase from Rhodococcus jostii) (Rhodococcus sp. RHA1)
# Experiment: SEC; pure EUGO on Superdex 200 10/300 GL (AKTA Pure), 100 uL loaded, 0.5 mL/min, running buffer 50 mM Tris-Base pH 8 with 150 mM NaCl; size estimated from a protein standard mix (15-600 kDa)
substance,measurement,value
6xHis-eugenol-oxidase-StrepTag-II (recombinant eugenol oxidase from Rhodococcus jostii) (enzyme),stoichiometry N,2
